For experiment [1], the target named is T1, recombinant human IL6R-his (human, UniProt P08887 20-365).
T1 construct: In house made; the entry includes the C-terminal His tag; also called human IL6R-his protein
T1 sequence: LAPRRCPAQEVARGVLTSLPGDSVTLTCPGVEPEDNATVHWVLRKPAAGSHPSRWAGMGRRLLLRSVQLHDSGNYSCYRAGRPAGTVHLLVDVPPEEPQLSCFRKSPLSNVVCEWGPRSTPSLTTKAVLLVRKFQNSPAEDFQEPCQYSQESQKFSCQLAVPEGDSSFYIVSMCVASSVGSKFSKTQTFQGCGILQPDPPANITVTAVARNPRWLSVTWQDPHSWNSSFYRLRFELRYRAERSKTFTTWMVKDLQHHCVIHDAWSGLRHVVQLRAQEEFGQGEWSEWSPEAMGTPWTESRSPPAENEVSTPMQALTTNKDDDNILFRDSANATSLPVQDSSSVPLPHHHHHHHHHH
Kind of experiment: SPR Biacore; antibody captured by anti-human IgG on CM5, human IL6R-his at 100 nM. Here is the method: Un-reacted moieties on the biosensor surface were blocked with ethanolamine. […] Then, serially diluted recombinant human IL6R-his (in house made, amino acid sequence set forth in SEQ ID NO: 44) or macaca IL6R-his protein (in house made, amino acid sequence set forth in SEQ ID NO: 45), starting at 100 nM with a 2-fold serial dilution in HBS-EP⁺ buffer (provided by Biacore), was flowed onto the chip at a flow rate of 30 μL/min. The antigen-antibody association kinetics was followed for 2 minutes and the dissociation kinetics was followed for 10 minutes. The association and dissociation curves were fit to a 1:1 Langmuir binding model using BIAcore evaluation software.
The recombinant human IL6R-his (amino acid sequence set forth in SEQ ID NO: 44) at the concentration of 100 nM instead of serially diluted recombinant human IL6R-his, was flowed onto the chip at a flow rate of 30 μL/min.
Background: SPR reads the build-up and loss of mass on a sensor chip optically.

The target of experiment [2] is T2, human IL6R-Fc protein (human, biotin-labeled in the ELISAs (sites not given)).
T2 construct: In house made; also called biotin-labeled human IL6R-Fc protein
The experiment can be described thus: capture ELISA: antibody captured on anti-IgG F(ab')2 coated plate, then biotin-labeled human IL6R-Fc, streptavidin-HRP. Here is the method:
For the capture ELISA, 96-well micro plates were coated with 2 μg/ml AffiniPure Goat Anti-Mouse IgG, F(ab′)₂ fragment specific (Jackson ImmunoResearch Laboratories, Inc., Cat #115-005-072) in PBS, 100 μl/well, and incubated for 2 hours at 37° C. Plates were washed once with wash buffer (PBS+0.05% v/v Tween-20, PBST) and then blocked with 200 μl/well blocking buffer (5% w/v non-fatty milk in PBST) overnight at 4° C. […] Plates containing captured anti-IL6R antibodies were incubated with biotin-labeled human IL6R-Fc protein (prepared in house, SEQ ID NO: 43, 39.5 ng/ml in 2.5% w/v non-fatty milk in PBST, 100 μl/well) for 40 minutes at 37° C., washed 4 times, and incubated with streptavidin conjugated HRP (1:10000 dilution in PBST, Jackson ImmunoResearch Laboratories, Inc., Cat #016-030-084, 100 μl/well) for 40 minutes at 37° C. After a final wash, plates were incubated with 100 μl/well ELISA substrate TMB (InnoReagents, Cat #TMB-S-002). The reaction was stopped 3-10 minutes later at room temperature with 50 μl/well 1M H₂SO₄, and the absorbance of each well was read on a microplate reader using dual wavelength mode at 450 nm for TMB and 630 nm as the reference wavelength. Then the OD (450-630) values were plotted against antibody concentration. Data was analyzed using Graphpad Prism software and EC₅₀ values were reported.
For the capture ELISA, AffiniPure Goat Anti-Human IgG, F(ab′)₂ fragment specific (Jackson Immuno Research, Cat #109-005-097) was used instead of AffiniPure Goat Anti-Mouse IgG, F(ab′)₂ fragment specific, 100 μl/well.
For orientation: ELISA stands for enzyme-linked immunosorbent assay.

The target in experiment [3] is T2, human IL6R-Fc protein. The experiment can be described thus: ligand blocking ELISA: antibody pre-incubated with biotin-labeled human IL6R-Fc, added to plate-coated human IL6 (blocked ligand: human IL6).
Experiment [4] has as its target T2, human IL6R-Fc protein. Kind of experiment: benchmark blocking ELISA: antibody pre-incubated with biotin-labeled human IL6R-Fc, added to plate-coated Tocilizumab (competitor: Tocilizumab).

B1: Chimeric 1H9 (antibody, human IgG1, kappa, V domains shown)
VH: QVQLQQPGAELVKPGASVKLSCKASGYTFTSYWMHWVKLRPGQGLEWIGEINPTNGRTNYYEKFKNRATLTADKSSSTAYMQLSSLTFEDSAVYFCAKFHYSRWYFDVWGTGTTVTVSS
VL: DIVMTQSQKFMSTSVGDRVSITCKASQNVGTAVVWYQQKPGQSPKLLINPASNRYTGVPDRFTGSGSGTDFTLTISNMQSEDLADYFCQQYSSYPLTFGAGTKLELKR
notes: Mouse variable regions on human IgG1 / human kappa constant regions; also called chimeric antibody 1H9
Usually Kd stands for the constant that tells how readily two partners part at equilibrium. In general, koff refers to a measure of how fast the partners let go of each other. Usually EC50 stands for the concentration giving half of the maximal effect. For orientation: IC50 means the concentration that gives 50% inhibition. Low readings indicate greater potency in that assay, high ones weaker potency in that assay. With B1, the Kd in experiment [1] is 0.915 nM. Further, in experiment [1], the koff stood at 0.000194 s⁻¹. In the experiment with human IL6R-Fc protein [2], this molecule showed an EC50 of 0.0897 nM. The concentration for half-maximal inhibition (IC50) turned out to be 0.213 nM in the experiment with human IL6R-Fc protein [3] and 0.338 nM in the experiment with human IL6R-Fc protein [4].

For the origin of these results see patent US20230167182A1 (BIOSION, published 2023).
